In patent US20050069887A1, “Dna synthesis promoters dna polymerase-associated factors and utilization thereof” (priority 2001, published 2005):

Assays:
pMol 21 = conditions: PCR product fidelity, rpsL / pMol 21 method; cited from earlier work
M13 single-stranded DNA = conditions: Takagi et al. 1997; cited from earlier work
[1] = target: the molecule itself; test: gel filtration HPLC (TSKgel G3000SW), molecular weight against standard samples
[2] = target: T1, KOD DNA polymerase (DNA polymerase derived from Thermococcus kodakaraensis KOD1) (Thermococcus kodakaraensis KOD1, UniProt P77933 1-1671); test: cell-based or functional assay
T1 sequence: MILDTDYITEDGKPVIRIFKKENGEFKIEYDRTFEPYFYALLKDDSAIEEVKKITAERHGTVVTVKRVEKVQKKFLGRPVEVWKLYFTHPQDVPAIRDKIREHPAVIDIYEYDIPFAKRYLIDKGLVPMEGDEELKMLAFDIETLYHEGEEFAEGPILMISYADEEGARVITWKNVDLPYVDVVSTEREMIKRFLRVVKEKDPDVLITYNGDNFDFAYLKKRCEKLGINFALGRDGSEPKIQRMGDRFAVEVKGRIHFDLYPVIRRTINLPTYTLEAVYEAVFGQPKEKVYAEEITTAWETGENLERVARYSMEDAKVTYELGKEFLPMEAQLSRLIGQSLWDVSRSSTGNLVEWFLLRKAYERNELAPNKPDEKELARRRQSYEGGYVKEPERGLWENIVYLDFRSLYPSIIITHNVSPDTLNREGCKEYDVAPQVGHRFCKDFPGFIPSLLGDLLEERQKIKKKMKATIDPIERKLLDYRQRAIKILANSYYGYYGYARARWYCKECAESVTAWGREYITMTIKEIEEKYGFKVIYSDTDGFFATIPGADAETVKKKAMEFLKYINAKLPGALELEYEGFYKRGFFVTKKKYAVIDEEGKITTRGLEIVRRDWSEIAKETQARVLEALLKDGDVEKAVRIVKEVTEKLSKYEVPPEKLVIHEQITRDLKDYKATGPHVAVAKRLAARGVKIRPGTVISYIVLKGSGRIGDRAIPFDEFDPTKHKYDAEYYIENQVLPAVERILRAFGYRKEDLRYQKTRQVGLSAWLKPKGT

Taq polymerase: DNA polymerase derived from Thermus aquaticus
mutation rate (pMol 21): ≥ 4%
DNA elongation rate (M13 single-stranded DNA): 61.0 bases/second

B1: Pfu polymerase: DNA polymerase derived from Pyrococcus furiosus (protein, UniProt P61875 1-775, looked up)
DNA polymerase: MILDVDYITEEGKPVIRLFKKENGKFKIEHDRTFRPYIYALLRDDSKIEEVKKITGERHGKIVRIVDVEKVEKKFLGKPITVWKLYLEHPQDVPTIREKVREHPAVVDIFEYDIPFAKRYLIDKGLIPMEGEEELKILAFDIETLYHEGEEFGKGPIIMISYADENEAKVITWKNIDLPYVEVVSSEREMIKRFLRIIREKDPDIIVTYNGDSFDFPYLAKRAEKLGIKLTIGRDGSEPKMQRIGDMTAVEVKGRIHFDLYHVITRTINLPTYTLEAVYEAIFGKPKEKVYADEIAKAWESGENLERVAKYSMEDAKATYELGKEFLPMEIQLSRLVGQPLWDVSRSSTGNLVEWFLLRKAYERNEVAPNKPSEEEYQRRLRESYTGGFVKEPEKGLWENIVYLDFRALYPSIIITHNVSPDTLNLEGCKNYDIAPQVGHKFCKDIPGFIPSLLGHLLEERQKIKTKMKETQDPIEKILLDYRQKAIKLLANSFYGYYGYAKARWYCKECAESVTAWGRKYIELVWKELEEKFGFKVLYIDTDGLYATIPGGESEEIKKKALEFVKYINSKLPGLLELEYEGFYKRGFFVTKKRYAVIDEEGKVITRGLEIVRRDWSEIAKETQARVLETILKHGDVEEAVRIVKEVIQKLANYEIPPEKLAIYEQITRPLHEYKAIGPHVAVAKKLAAKGVKIKPGMVIGYIVLRGDGPISNRAILAEEYDPKKHKYDAEYYIENQVLPAVLRILEGFGYRKEDLRYQKTRQVGLTSWLNIKKS
DNA elongation rate (M13 single-stranded DNA): 24.8 bases/second

B2: KOD-PCNA (proliferating cell nuclear antigen) derived from Thermococcus kodakaraensis KOD1 (other)
chain: PFEVVFDGAKEFADLIATASNLIDEAAFKFTEEGISMRAMDPSRVVLIDLNLPESIFSKYEVEEPETIGINMDQFKKILKRGKAKDTLILRKGDENFLEITFEGTAKRTFRLPLIDVEELELELPELPFTAKVVLLGEVLKEGIKDASLVSDAIKFIAKENEFTMKAEGETNEVEIRLTLEDEGLLDLEVEEETKSAYGISYLSDMVKGIGKADEVILRFGNEMPLQMEYMIRDEGRLTFLLAPRVEE
notes: also called KOD-PCNA protein; KOD-PCNA complex
binding result [1]: binds
DNA elongation rate relative to the sample with no PCNA added [2]: ~3 times
